Assay results published in publication PMC11048008.

Biological target: β2-adrenergic receptor (β2AR) (human) (UniProt P07550)

Binder: AITTGGNTYYANSVKGRFTISRDNA [CDR2-NDP P4 (25-amino-acid nanobody-derived peptide from the CDR2 of Nb71)]
- cAMP formation (HitHunter cAMP assay) in β2AR-transfected HEK-293 cells, P4 alone 10^-9 to 10^-4 M, no isoproterenol: EC50: 210 nM
- cAMP formation (HitHunter cAMP assay) in β2AR-transfected HEK-293 cells, P4 alone 10^-9 to 10^-4 M, no isoproterenol: increase in cAMP as percent of the maximum response to isoproterenol: < 20%
- decrease of isoproterenol potency in the cAMP assay by 50 µM P4 in β2AR-transfected HEK-293 cells (pair interfered with: agonist-activated β2AR and endogenous Gαs): < 20 fold
- reduction of the maximal isoproterenol-induced cAMP level by 50 µM P4 in β2AR-transfected HEK-293 cells (pair interfered with: agonist-activated β2AR and endogenous Gαs): 40%
